Measurements reported in article PMC7598594 (Toxins, 2020).

Columns and labels:
Test in all cases: ELISA
Conditions in all cases: both partners purified
[1] = biological target: T1, carboxyl terminal domain of the BoNT/E heavy chain (HCE) (Clostridium botulinum, BoNT/E (subtype …))
[2] = biological target: T2, light chain of BoNT/E1 (LC/E) (Clostridium botulinum, BoNT/E subtype …, UniProt Q00496)
T2 construct: source: E. coli BL21(DE3), purified (Ni-NTA, Streptactin, SEC)

[3] = biological target: T2, light chain of BoNT/E1 (LC/E); remark: listed apart in the source
[4] = biological target: T1, carboxyl terminal domain of the BoNT/E …; remark: listed apart in the source

T2 sequence (Q00496 2-403): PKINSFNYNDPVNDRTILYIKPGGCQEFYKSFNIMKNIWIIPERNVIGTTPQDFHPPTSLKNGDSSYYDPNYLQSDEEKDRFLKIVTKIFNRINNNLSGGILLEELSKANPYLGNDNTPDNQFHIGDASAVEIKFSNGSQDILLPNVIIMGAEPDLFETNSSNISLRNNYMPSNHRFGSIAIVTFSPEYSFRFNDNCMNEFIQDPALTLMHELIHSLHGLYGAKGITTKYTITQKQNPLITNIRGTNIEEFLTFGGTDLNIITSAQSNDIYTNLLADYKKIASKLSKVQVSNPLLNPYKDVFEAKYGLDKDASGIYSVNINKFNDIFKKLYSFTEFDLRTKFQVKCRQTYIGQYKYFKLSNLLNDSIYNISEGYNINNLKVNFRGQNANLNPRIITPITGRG

B1: JSI-F6 (VHH)
VHH: SGGGLVQAGGSLRVSCAASGRTFSTYAMGWFRQAPGKEREFVAAITKSGDYAYYADAVKGRFTISRDNAKNTVSLQMNSLKDEDTAVYYCAAHRSPLYSASVYDRDYDYWGQGTQVTVSS
notes: source: E. coli, purified
[1]
  EC50: 3 nM
[2]
  binding result: no binding (tested: 125 nM)

B2: JSI-C7 (VHH)
VHH: SGGGLMQAGGSLRLACAASGRPFSTYFMGWFRQAPGKERDFVAVIDWSDGSTDYADSVKGRFTISRDNAKNTVYLQMNSLKPEDTAVYYCAARGSYLYTWPLEPDEYDYWGQGTQVTVSS
notes: source: E. coli, purified
[2]
  binding result: no binding (tested: 125 nM)

B3: JSI-A4 (VHH)
VHH: SGGGLVQAGGSLRLSCAASGLTFSDTAVGWFRQAPGKEREFVAAAVIWSGVNTRYADSVRGRFTISRDSAKNTVYLQMNTLKPEDTAIYYCAAGRGAAAFPTDRSQYVYWGQGTQVTVSS
notes: source: E. coli, purified
[2]
  binding result: no binding (tested: 125 nM)

B4: JLF-H5 (VHH)
VHH: QVQLVESGGGSVQPGGSLRLSCVASGFTFTNYAMAWVRQVSGKGLEGVAAISSEGFIYIPDSVKGRFTISRDNAKNTVYLQMDNLQSEDTAIYHCAAVDWKRVAAMNSYNMDYWGKGTPVTVSA
notes: source: E. coli, purified
[3]
  EC50: 10 nM

B5: JSI-H9 (VHH)
VHH: SGGGSVQAGGSLGLTCQGSGDAVRRGWFRQAPGKEREFVAAITSYGGTTFYADSVKGRFTVSRDNAKNTVYLQMISLKPEDTAVYYCAAASRPTGWPYEYDVWGQGTQVTVSS
notes: source: E. coli, purified
[2]
  binding result: no binding (tested: 125 nM)

B6: JSI-G9 (VHH)
VHH: SGGGMVQAGGSLRLSCAASGRTASLDGMGWFRQAPGKEREFVGSINWRIGTTYYIDSVQGRFTISRDNARNTVYLQMISLKPEDTAVYYCAARLRRTDLISSPASYEYWGHGTQVTVSS
notes: source: E. coli, purified
[2]
  binding result: no binding (tested: 125 nM)

B7: JLE-G6 (VHH)
VHH: QLQLVETGGGLVKPGGSLRLSCVVSGFTFDDYRMAWVRQAPGKELEWVSSIDSWSINTYYEDSVKGRFTISTDNAKNTLYLQMSSLKPEDTAVYYCAAEDRLGVPTINAHPSKYDYNYWGQGTQVTVSS
notes: source: E. coli, purified
[4]
  EC50: 3 nM

B8: JSI-F2 (VHH)
VHH: SGGGLVQAGGSLRLSCAASGGTVSKYPMGWFRQAPGQEREFVAALSRDTDYTYYADSVKGRFTISRDNAKNTVYLQMNSLKREDTALYYCAAGSTDLKYSASVYADDYDYWGQGTQVTVSS
notes: source: E. coli, purified
[1]
  EC50: 2 nM
[2]
  binding result: no binding (tested: 125 nM)

B9: JLG-G12 (VHH)
VHH: QLQLVETGGGLVQAGGSLRLSCAASGRTFSSYAVGWFRQAPGKEREFVAAISWSGSYAYYADSVKGRFTISRDNAKNTVYLQMNSLKPEDTAVYYCNGDLEGYSNHETGDYWGQGTQVTVSS
notes: source: E. coli, purified
[3]
  EC50: 2 nM
